This note sets out measurements from the supplement of paper PMC12042874.

± gives the uncertainty stated by the source.

This data set can be described thus: amyloid nucleation score (Sup35N fusion, yeast selection) (log enrichment); library NNK1; higher = more nucleation; inactive = no reads after selection. The gist of the method:
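Using DiMSum, nucleation scores were taken as the log enrichment of output over input reads, centred on the mode score of non-aggregating sequences. The input and output reads came from Illumina sequencing of plasmid inserts, with sequences under 100 input reads excluded. The yeast were psi-negative, expressed Sup35N fused to peptides of 20 random codons, were induced with 100 μM copper sulfate for 24 hours, and were grown 7 days at 30°C on medium lacking adenine and uracil.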
Take FLTLCVLNRLWH: the amyloid nucleation score stood at 4.85 ± 0.11.

Turning to FLTSECSTSSLHS, the amyloid nucleation score was 0.56 ± 0.85.

FLVCLFINVVTPRTYHLWVY yielded an amyloid nucleation score of -0.174 ± 0.49.

Substance FLVKSIRTVGL showed an amyloid nucleation score of 0.605 ± 0.36.

FLVPEVEKIFNIRVLEVRLM displayed an amyloid nucleation score of -0.834 ± 0.6.

In the case of FLVQNRRISEVIELWALLS, the amyloid nucleation score is -1.19 ± 2.7.

On to FLYVVARY, for which the amyloid nucleation score came to 0.19 ± 0.71.

With FLYWLVDKLG, the amyloid nucleation score is 0.37 ± 0.51.

FMCIPV: the amyloid nucleation score is 0.189 ± 0.55.

Substance FMFYTYHVNSYFSILCSVSN gave an amyloid nucleation score of 0.655 ± 0.46.

In turn, FMGVINGEITLVNSFVTYMR had an amyloid nucleation score of 7.768 ± 0.051.

As for FMQLTYRMCGSPSIRVNGVL, the amyloid nucleation score was 0.685 ± 0.34.

FMRDCSYI registered an amyloid nucleation score of 0.687 ± 0.79.

Substance FMRSATCKVWNL displayed an amyloid nucleation score of -0.079 ± 0.51.

Regarding FMSYLNYRQCPPVLDEEVVP, the amyloid nucleation score amounted to 0.241 ± 1.

In turn, FNCLMALIFPDVLDCSYSVD had an amyloid nucleation score of 1.26 ± 0.9.

For FNDFSLSYARFCINSMNRYP, the amyloid nucleation score worked out at 0.968 ± 0.13.

The substance FNFNFRRFYHVRGFDSRSHL yielded an amyloid nucleation score of 0.473 ± 0.58.

The substance FNIIASPSWVSVRNHGNLWV came in with an amyloid nucleation score of 4.91 ± 0.062.

In turn, FNITYCFRSFSTSVDNGF yielded an amyloid nucleation score of 0.436 ± 0.55.

FNKTSMVSGNQLRVLVLVNI showed an amyloid nucleation score of 1.08 ± 0.59.

On to FNLRTIARDL, for which the amyloid nucleation score is -1.68 ± 0.97.

For the substance FNLSVKAY, the amyloid nucleation score is -0.581 ± 1.6.

As to FNNPKCHSWLDRMVWLMWLA, the amyloid nucleation score was determined as 0.343 ± 0.61.

With FNSRGSVSNL, the amyloid nucleation score is 0.821 ± 1.1.

As to FNSRTAGCRLSTQMFSRKQT, the amyloid nucleation score amounted to 0.402 ± 0.92.

FNWMRP gave an amyloid nucleation score of 0.706 ± 0.31.

With FNYLICAVDSRTLNSW, the amyloid nucleation score turned out to be 4.7 ± 0.05.

With FPDMCILRILYVKVLV, the amyloid nucleation score is -1.52 ± 1.6.

Consider FPYILMKRAKQYALGPRHLL, for which the amyloid nucleation score is -0.435 ± 0.32.

Substance FQNELCKTDIWFRVREWESE displayed an amyloid nucleation score of 0.196 ± 1.2.

Consider FRCLRTRSCLQWAQGLGAEA, for which the amyloid nucleation score came out at 0.596 ± 0.47.

FRDSTET gave an amyloid nucleation score of 0.495 ± 1.4.

As to FRGFR, the amyloid nucleation score was -0.235 ± 0.4.

FRLLGLTR came in with an amyloid nucleation score of 0.087 ± 0.62.

For FRLMPEYVATYMLSLRMCQC, the amyloid nucleation score was -0.565 ± 1.2.

Consider FRLTLGIVVLLVGK, for which the amyloid nucleation score entry was “inactive”.

Take FRMNRKVRC: the amyloid nucleation score was 0.082 ± 0.29.

FRSAKAIMLEVN: the amyloid nucleation score turned out to be 0.048 ± 0.41.

For FRSFNGTCSGVQWSVFVIWV, the amyloid nucleation score is -0.18 ± 0.77.

In turn, FRSGYRLACSAMSIAFCIYE registered an amyloid nucleation score of 0.341 ± 0.48.

The substance FRSLMLLDFTYHVVSGLRYK displayed an amyloid nucleation score of -0.609 ± 1.9.

Take FRWTLTSLRSVNDFSG: the amyloid nucleation score came to 0.948 ± 0.65.

As to FSCKSAPQFCRWG, the amyloid nucleation score turned out to be 0.718 ± 0.42.

In turn, FSFGIVSVMGYVLYRRRPWA registered an amyloid nucleation score of 1.08 ± 0.63.

The substance FSFLHLVGRWGLIVSNCSDV registered an amyloid nucleation score of -0.355 ± 0.64.

In the case of FSKAMNFRDRTSSQSQ, the amyloid nucleation score is -0.581 ± 1.2.

FSLFDGMVLVNS returned an amyloid nucleation score of -0.281 ± 0.39.

Turning to FSSWQGMGKQYWPERIRCAD, the amyloid nucleation score worked out at 0.425 ± 0.46.

Consider FSWADLDRYCISLQNQGPLA, for which the amyloid nucleation score stood at 0.66 ± 0.42.

As to FSYTDNSTRFVTFQLRNIPA, the amyloid nucleation score worked out at 0.598 ± 0.33.

Take FTAVK: the amyloid nucleation score is -0.188 ± 0.46.

FTCFAK yielded an amyloid nucleation score of 1.14 ± 0.52.

The substance FTCKWRVGFWTPVSDPV showed an amyloid nucleation score of -1.27 ± 0.7.

Turning to FTFEFVNHMASVYRSLMYER, the amyloid nucleation score is -0.356 ± 1.1.

For the substance FTKGNYCSGLLGSSSRWTPF, the amyloid nucleation score stood at 0.926 ± 0.74.

Turning to FTLMGNSCHRGLV, the amyloid nucleation score is -0.66 ± 0.85.

Take FTNASDYYELVLHCRGAEKE: the amyloid nucleation score came to 0.523 ± 0.3.

Consider FTQKIFQTFFDHAYNWFSRV, for which the amyloid nucleation score stood at 0.918 ± 0.46.

In the case of FTRGDICLYLFCELFRPVNC, the amyloid nucleation score was found to be 2.29 ± 0.22.

On to FTSAASQFRVMSGQSNSKYP, for which the amyloid nucleation score is -1.2 ± 2.4.

With FTSVITLMFNYNTFWKKSSY, the amyloid nucleation score worked out at 1.12 ± 0.27.

Regarding FTVLWCRSMLGC, the amyloid nucleation score is -0.111 ± 0.4.

Substance FTVVWGHQVYVMTSPFSSAG gave an amyloid nucleation score of 5.76 ± 0.062.

FVKRF registered an amyloid nucleation score of 0.073 ± 0.4.

Consider FVLHCCRLRGHTSSSHWLGA, for which the amyloid nucleation score amounted to 0.245 ± 0.43.

Substance FVLLELVSVVRVLHYDGIWD registered an amyloid nucleation score of 0.079 ± 0.51.

With FVLLRIRHRFFWGSCLNPFQ, the amyloid nucleation score was 1.12 ± 0.26.

The substance FVLQWRNIRVVDLRMRPYPK had an amyloid nucleation score of 0.508 ± 0.28.

Regarding FVMLFRFRVVCRFV, the amyloid nucleation score entry was “inactive”.

FVSGVFGYRMYDPRRVWLSL had an amyloid nucleation score of -0.178 ± 0.7.

In turn, FVVRCDYVVLTLDSGDRSYV yielded an amyloid nucleation score of 3.37 ± 0.071.

FVVVHRSASGPEIQFLKGGR gave an amyloid nucleation score of -0.684 ± 0.4.

Regarding FVYNTSFLYSVCNNWAKRSP, the amyloid nucleation score was determined as 7.758 ± 0.053.

FWIDLGMTLGTCRSFLSLRS registered an amyloid nucleation score of 0.217 ± 0.6.

FWIWVCSDLLLD gave an amyloid nucleation score of 0.423 ± 0.43.

FWLFSGLCNRFNTGYDFLKS: the amyloid nucleation score is 1.12 ± 0.48.

Take FWLLS: the amyloid nucleation score is -0.153 ± 1.

The substance FWRGDRLVMSFEE showed an amyloid nucleation score of -0.285 ± 0.83.

In turn, FWRMTFQRHEKLSHQ showed an amyloid nucleation score of -0.28 ± 0.38.

Substance FWSVYKT showed an amyloid nucleation score of 0.744 ± 0.27.

FWVFLTRKLCYSHGRVLALV yielded an amyloid nucleation score of -0.708 ± 1.1.

As for FYGQRPKMLCPTRAEDLTKA, the amyloid nucleation score is -0.269 ± 0.88.

Consider FYIVIDYFRNCAG, for which the amyloid nucleation score turned out to be 0.005 ± 0.38.

Substance FYPRM gave an amyloid nucleation score of 0.781 ± 0.54.

FYRFDQRNLEDVGGGMYGSS: the amyloid nucleation score is 0.3 ± 0.83.

The substance FYTAYCGLALRLVTTQPCMS gave an amyloid nucleation score of -0.001 ± 0.49.

In turn, FYVANVACSCAFMLPITNVR had an amyloid nucleation score of -0.461 ± 0.73.

Take GAFAFQKL: the amyloid nucleation score worked out at 0.358 ± 1.1.

Substance GAFEDEVVLLTHTL gave an amyloid nucleation score of -0.447 ± 1.1.

For GANKTWCYKSSQCVISDGLG, the amyloid nucleation score was -0.103 ± 0.66.

With GARYNASDRGEASYLIEHCG, the amyloid nucleation score was -0.531 ± 0.99.

As to GARYVLYMLT, the amyloid nucleation score is -0.85 ± 0.88.

Take GATIIKSFLDRNSTTWLSLV: the amyloid nucleation score is -0.451 ± 0.63.

GAVICICCIIIGKYC gave an amyloid nucleation score of 3.74 ± 0.082.

For GAYNWVF, the amyloid nucleation score was -0.107 ± 0.55.

In turn, GCDTQLQMGLFMSYIMNTSV came in with an amyloid nucleation score of -0.621 ± 1.1.

With GCLFICSMRELYKSASSTMR, the amyloid nucleation score turned out to be 0.141 ± 0.48.

In the case of GCLNDCGSLVWYGVCKSCLP, the amyloid nucleation score is 0.446 ± 0.6.

For the substance GCSVWDCWGLRVRSVGRSDR, the amyloid nucleation score came to 0.449 ± 0.34.

GCVGGWSVEFITLGYWSQRG displayed an amyloid nucleation score of 1.17 ± 0.88.

Substance GCYQYWCRSFHVGEIPVP returned an amyloid nucleation score of -0.003 ± 1.1.

In turn, GDCFFQSYDTVFNFASR gave an amyloid nucleation score of 2.24 ± 0.2.

Consider GDFKTRLFSCLDSRLILGRG, for which the amyloid nucleation score was -0.485 ± 1.5.

In turn, GDIALS displayed an amyloid nucleation score of -0.292 ± 0.41.

In turn, GDNACLLSSIEDALDSVQVL had an amyloid nucleation score of 0.99 ± 0.67.

With GDTYHNYVWRLDACSTLPWY, the amyloid nucleation score is -0.547 ± 0.53.

Substance GDVFVYSDDWGDGVNGSGGR had an amyloid nucleation score of -1.96 ± 2.4.

Substance GENYLGCLGSFWKTSNTCCP showed an amyloid nucleation score of -0.881 ± 1.4.

For GETRVLHDKVGRKFGLCKDF, the amyloid nucleation score came to 0.32 ± 0.41.

GFAWYDYMLQYIVVLVGLYN: the amyloid nucleation score was -0.159 ± 1.4.

In the case of GFECSCKYHDFTGSALCNTL, the amyloid nucleation score was found to be 0.613 ± 0.36.

Consider GFFFVFHYSGTHGLICCYTL, for which the amyloid nucleation score was -0.22 ± 0.41.

Turning to GFGMFATTGKVLSMRAFQ, the amyloid nucleation score stood at 0.025 ± 0.59.

As to GFGPTIYSFRSSGQGNGLMP, the amyloid nucleation score is -0.3 ± 0.27.

GFGSRRYFRAVLSCPR had an amyloid nucleation score of 0.852 ± 0.93.

Take GFLTSSIYRSLAVQLNQSWW: the amyloid nucleation score is 0.078 ± 0.32.

For GFMIICN, the amyloid nucleation score is -0.405 ± 0.88.

In turn, GFRRGPVSSSV returned an amyloid nucleation score of 0.206 ± 0.67.

As to GFSKMLLAIVSIQDKGSWDA, the amyloid nucleation score was found to be 2.41 ± 0.17.

Take GFSVLCRSRPQGSTGVQIRV: the amyloid nucleation score was -0.788 ± 0.86.

Substance GFVILDSNPLRFNCFWVDAF showed an amyloid nucleation score of 0.325 ± 0.29.

Substance GFYDRYVNAGMECAGPSSQR registered an amyloid nucleation score of 5.24 ± 0.079.

GGALSCVRDF came in with an amyloid nucleation score of 1.39 ± 0.78.

GGCRIYLSSRM registered an amyloid nucleation score of -0.583 ± 0.46.

GGDGVKVVIGLHGWFASGYL had an amyloid nucleation score of 1.24 ± 0.3.

In turn, GGDSQCVLTGFWYCSTWGKG had an amyloid nucleation score of 6.438 ± 0.056.

GGFWPICYWNLRASEPLQDS registered an amyloid nucleation score of 0.173 ± 0.63.

Substance GGGGNVGGFFMWCSVYSAGV returned an amyloid nucleation score of -0.105 ± 0.96.

The substance GGKAIIQCLEW registered an amyloid nucleation score of -0.362 ± 1.2.

Regarding GGKVGREQTIW, the amyloid nucleation score was -0.123 ± 0.89.

Take GGLGRYWTTHE: the amyloid nucleation score was found to be 0.436 ± 0.83.

In the case of GGLPGNRSYRGWSSIFACLR, the amyloid nucleation score was determined as 0.021 ± 0.49.

GGQRWELLFLTRGPGRRWQG showed an amyloid nucleation score of 0.2 ± 1.2.

GGSLVSGSFDKYSYSKYRLW had an amyloid nucleation score of -0.128 ± 1.4.

For GGTYPPLDISDFNW, the amyloid nucleation score is -0.616 ± 0.27.

In turn, GHGALSCMMNFHSTGGKVKS yielded an amyloid nucleation score of 0.667 ± 0.68.

The substance GHIDAQWPRFRCHMA gave an amyloid nucleation score of 0.147 ± 0.32.

As for GHNINFGVDCGTVGRFCNTW, the amyloid nucleation score was -0.54 ± 0.61.

Regarding GHSDFYTTPLKLCRGE, the amyloid nucleation score turned out to be 0.634 ± 0.72.

GHWDTVGIR came in with an amyloid nucleation score of -0.292 ± 0.28.
